Where a chain is given by its changes, count along the chain named. Numbers in names are those of the source. Read-outs that look alike come from different tables or passages of the source.
B1: Pyrococcus furiosus RNase P protein RPP29 (natural protein)
chain: MWRNSEERENRTSGRSQGSYQEIIGRTWIFRGAHRGRVNKKNIVWHELIGLKVRVVNSTHPGYVGIEGYVIDETRNMLVIAGENKVWKVPKDVCIFEFETWDGTKIKISGEKLVGRPEMRLKKRWRK
B2: Pyrococcus furiosus RNase P protein RPP21 (natural protein)
chain: MAKYNEKKEKKRIAKERIDILFSLAERVFPYSPELAKRYVELALLVQQKAKVKIPRKWKRRYCKKCHAFLVPGINARVRLRQKRMPHIVVKCLECGHIMRYPYIKEIKKRRKEKMEY
B3: Pyrococcus furiosus RPP21/A14V (natural protein)
chain: B2 chain with A14V

Assays:
Experiment in all cases: ITC
[1] = target: B2
[2] = target: B2; remark: listed apart in the source
[3] = target: B2; remark: listed apart in the source
[4] = target: B2; remark: listed apart in the source
[5] = target: B2; remark: listed apart in the source
[6] = target: B2; remark: listed apart in the source
[7] = target: B2; remark: listed apart in the source
[8] = target: B2; remark: listed apart in the source
[9] = target: B2; remark: listed apart in the source
[10] = target: B2; remark: listed apart in the source
[11] = target: B2; remark: listed apart in the source
[12] = target: B1
[13] = target: B1; remark: listed apart in the source
[14] = target: B1; remark: listed apart in the source
[15] = target: B1; remark: listed apart in the source
[16] = target: B1; remark: listed apart in the source
[17] = target: B1; remark: listed apart in the source
[18] = target: B1; remark: listed apart in the source
[19] = target: B1; remark: listed apart in the source
[20] = target: B1; remark: listed apart in the source

Binder: B1
dH [1]: -43 kcal/mol
dH [2]: -37.6 kcal/mol
dH [3]: -34.3 kcal/mol
dH [4]: 11.6 kcal/mol
stoichiometry N [4]: 1.01 RPP29 per RPP21
dH [5]: -10.2 kcal/mol
stoichiometry N [5]: 0.998 RPP29 per RPP21
dH [6]: -15.8 kcal/mol
stoichiometry N [6]: 1.03 RPP29 per RPP21
dH [7]: -23.5 kcal/mol
stoichiometry N [7]: 1 RPP29 per RPP21
dH [8]: 5.95 kcal/mol
stoichiometry N [8]: 0.9 RPP29 per RPP21
dH [9]: -5.19 kcal/mol
stoichiometry N [9]: 0.986 RPP29 per RPP21
dH [10]: 17.1 kcal/mol
stoichiometry N [10]: 0.956 RPP29 per RPP21
dH [11]: -32 kcal/mol
stoichiometry N [11]: 0.97 RPP29 per RPP21

Binder: B2
Ka [12]: 1.09e+07 M⁻¹
Ka [13]: 2.01e+07 M⁻¹
Ka [14]: 1.71e+07 M⁻¹
Ka [15]: 1.07e+07 M⁻¹
Ka [16]: 9.55e+06 M⁻¹
Ka [17]: 3.32e+07 M⁻¹
Ka [18]: 9.17e+06 M⁻¹
Ka [19]: 2.04e+06 M⁻¹

Binder: B3
binding result [20]: binds
